The text below walks through data of PMC11206218 (Science Advances, 2020).

The target in the assay is T1, S. cerevisiae Ggc1(C222S) with C-terminal His6-tag (S. cerevisiae, UniProt P38988 1-300, C222S).
T1 sequence (looked up): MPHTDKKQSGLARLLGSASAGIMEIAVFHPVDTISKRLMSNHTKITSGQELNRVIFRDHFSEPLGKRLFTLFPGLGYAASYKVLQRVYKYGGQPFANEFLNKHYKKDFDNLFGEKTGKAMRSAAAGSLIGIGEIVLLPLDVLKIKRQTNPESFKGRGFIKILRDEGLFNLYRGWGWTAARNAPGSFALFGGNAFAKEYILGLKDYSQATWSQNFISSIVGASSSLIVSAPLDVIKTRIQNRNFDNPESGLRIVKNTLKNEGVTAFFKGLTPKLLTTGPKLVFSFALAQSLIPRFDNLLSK
The experiment in a line: pull-down.

B1: TIM8·13(Tim8_(K30F,S36L)) mutant chaperone complex (complex, S. cerevisiae)
chain 1: MSSLSTSDLASLDDTSKKEIATFLEGENSFQKVQMLIHQFTNICFKKCVESVNDSNLSSQEEQCLSNCVNRFLDTNIRIVNGLQNTR
chain 2: GGLSSIFGGGAPSQQKEAATTAKTTPNPIAKELKNQIAQELAVANATELVNKISENCFEKCLTSPYATRNDACIDQCLAKYMRSWNVISKAYISRIQNASASGEI
Consider B1, for which the binding result is given as “binds”.
